From paper PMC12354568
Several values for one entry are separate records, joined by “and”; a condition that tells them apart may be missing. Equal values may be shown once.

Molecular target: human neonatal Fc receptor (FcRn), His-tagged (human) (UniProt P55899)
Assay: BLI

Row | Kd | Substance
1 | 19.2 to 34.5 nM and 17.6 to 35.4 nM | RoActemra^® tocilizumab (EU-sourced reference medicinal product, IV and SC) (antibody)
2 | 26.5 to 30.4 nM and 26.3 to 31.7 nM | RGB-19 tocilizumab (proposed biosimilar, IV and SC drug products) (antibody)
